Target: HA-Ubiquitin-Vinyl Sulfone (UniProt P0CG48 1-76, vinyl sulfone (active site probe of cysteine DUBs))
Assay: active-site-directed labelling with HA-UbVS

B1: UCHL5 (enzyme)
chain: MTGNAGEWCLMESDPGVFTELIKGFGCRGAQVEEIWSLEPENFEKLKPVHGLIFLFKWQPGEEPAGSVVQDSRLDTIFFAKQVINNACATQAIVSVLLNCTHQDVHLGETLSEFKEFSQSFDAAMKGLALSNSDVIRQVHNSFARQQMFEFDTKTSAKEEDAFHFVSYVPVNGRLYELDGLREGPIDLGACNQDDWISAVRPVIEKRIQKYSEGEIRFNLMAIVSDRKMIYEQKIAELQRQLAEEEPMDTDQGNSMLSAIQSEVAKNQMLIEEEVQKLKRYKIENIRRKHNYLPFIMELLKTLAEHQQLIPLVEKAKEKQNAKKAQETK
binding result: binds

From paper PMC5287571 (Biochemical pharmacology, 2016)
